Test results: US20230111102A1 (KAO, published 2023)

Target: T1, HEWL (lysozyme, derived from egg albumen, FUJIFILM Wako Pure Chemical Corporation) (UniProt P00698 19-147)
T1 construct: Immobilised on a CM5 sensor chip by amine coupling (target 150 RU); Species is only implied by 'derived from egg albumen' and the abbreviation HEWL; also called antigen
Experiment: SPR (Biacore T200), HEWL amine-coupled to CM5 chip, 1ZVH at 8.6-700 nM as analyte, 1:1 binding model
Method: The antigen-binding activity of the 1ZVH (SEQ ID NO: 38) produced by Dpr9ΔsigF was analyzed by intermolecular interaction measurement using Biacore T200 (GE Healthcare). The sensor chip used was Series S Sensor Chip CM5, and the running buffer used was HBS-EP+. HEWL (lysozyme, derived from egg albumen, FUJIFILM Wako Pure Chemical Corporation) was adjusted to 0.7 g/L with 25 mM Na phosphate pH 6.5 buffer to prepare an antigen solution. The antigen solution diluted 100-fold with an acetic acid aqueous solution (pH 4.0, 4.5, 5.0, or 5.5) to 7 μg/mL was used as substrates. As samples, 1ZVH diluted with the running buffer to 8.6 nM, 26 nM, 78 nM, 230 nM, or 700 nM was used. The following items were set or performed on the control software attached to Biacore T200 using the substrates and the samples, and the binding between the HEWL and the 1ZVH was monitored. Immobilisation pH scouting was performed to investigate the optimum pH for ill- mobilization to a sensor chip. The optimum pH condition was judged to be pH 5.5. The target was set to 150 RU with Aim for immobilized level, and lysozyme was immobilized to Flow path 2 by an amine coupling method. In Flow path 1, Blank Immobilization was performed. The binding between a substrate and a sample was monitored in Flow path 2-1. […] The kinetics were analyzed using the resulting sensor gram. […]

T1 sequence (P00698 19-147 limits assumed): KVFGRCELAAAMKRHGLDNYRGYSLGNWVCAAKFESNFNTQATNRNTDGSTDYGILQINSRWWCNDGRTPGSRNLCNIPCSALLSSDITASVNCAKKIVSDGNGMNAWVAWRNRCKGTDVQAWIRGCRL

B1: 1ZVH (VHH, SEQ ID NO: 38) produced by Bacillus subtilis Dpr9ΔsigF (VHH)
VHH: QVQLVESGGGLVQPGGSLRLSCAASGFTFSNDAMTWVRQAPGKALEWVSSITLLGGGIPYYSDTVKGRFTISRDNTKNMLYLQMNSLKPEDTAVYYCAKGFKSDYPRGQGTQVTVSS
notes: Secreted by Dpr9ΔsigF and purified on Ni-NTA agarose; also called the VHH (1ZVH); purified VHH
- binding result: binds
